According to article PMC2789841:

Legend:
Assay in all cases: SPR
[1] = molecular target: Recombinant human CypD protein (cyclophilin D) (human) (UniProt P30405)
oligomeric Aβ40 = molecular target: oligomeric Aβ40
oligomeric Aβ42 = molecular target: oligomeric Aβ42

| Kd [1] | Kd (oligomeric Aβ40) | Kd (oligomeric Aβ42) | Substance |
| --- | --- | --- | --- |
| 1700 nM | – | – | Aβ40 (Aβ peptide residues 1-40) |
| 164 nM | – | – | Aβ42 (Aβ peptide residues 1-42) |
| – | 227 nM | 4 nM | Recombinant human CypD protein (cyclophilin D) (from UniProt P30405 30-207) (natural protein) |
